This is an account of results in patent US20200369774A1 (JIANGSU HENGRUI MEDICINE, published 2020).

Experiment [1] deals with T1, hIL-6R.BP15 (human interleukin-6 receptor with BP15 tag, biotinylated) (human, UniProt P08887 20-365, site-directed biotinylation on the BP15 tag).
T1 sequence: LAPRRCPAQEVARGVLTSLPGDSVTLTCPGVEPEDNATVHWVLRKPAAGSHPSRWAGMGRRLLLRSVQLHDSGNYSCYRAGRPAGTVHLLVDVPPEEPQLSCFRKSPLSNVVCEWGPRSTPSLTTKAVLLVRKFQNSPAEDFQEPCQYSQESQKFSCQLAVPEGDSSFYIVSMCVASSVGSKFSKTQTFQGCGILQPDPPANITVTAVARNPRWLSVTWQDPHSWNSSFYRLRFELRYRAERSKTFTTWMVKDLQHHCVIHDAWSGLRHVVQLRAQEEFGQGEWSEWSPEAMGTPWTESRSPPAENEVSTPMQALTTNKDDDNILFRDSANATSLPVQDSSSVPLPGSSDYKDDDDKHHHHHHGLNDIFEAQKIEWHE
As to the kind of experiment: blocking ELISA: coated gp130, IL-6.his and IL-6R.BP15 (0.06 ug/ml) with serially diluted antibody, HRP-streptavidin, OD450; blocked: binding of the IL-6/IL-6R complex to gp130; unit from the abscissa. The method, then: The complex of IL-6 and IL-6R can bind to GP130. The assay will evaluate if the selected antibodies were able to block the formation of IL-6/IL-6R/gp130 complex by binding to IL-6R. The plates were coated with 1 μg/ml gp130 (diluted in PBS) at 4° C. overnight. The coating solution was discarded, and plates were blocked with 5% skim milk in PBS at 37° C. for 2-3h. After blocking, the plates were washed 3 times with washing buffer PBST (0.1% Tween-20 in PBS).
IL-6.his and IL-6R.BP15 were diluted with 1% BSA in PBS to a concentration of 0.06 μg/ml. Starting at 50 ug/ml, IL-6R antibodies were 1:3 serially diluted in dilution buffer and Both testing antibody samples and IL-6/IL-6R complex were added to the plate followed by lh incubation at 37° C. After that, the plates were washed for 3 times with washing buffer PBST (0.1% Tween-20 in PBS).
1:2000 diluted Secondary antibody HRP streptavidin (Jackson, 016-030-084) was added to the plate followed by 1 h incubation at 37° C.After incubation and wash,. TMB was used for development. OD₄₅₀ values were read.
(In general: In an ELISA, binding on a coated surface is turned into a signal by an enzyme label.)

The target in experiment [2] is T1, hIL-6R.BP15 (human interleukin-6 …). As to the kind of experiment: blocking ELISA: coated IL-6.Fc, 1 ng/ul biotinylated IL-6R.BP15 with serially diluted antibody, HRP-streptavidin, OD450; blocked ligand IL-6.Fc; unit from the abscissa. The procedure:
The formation of IL-6R/IL-6 complex can be blocked by the binding of IL-6R antibody to IL-6R, indicating the downstream cell signaling could be blocked by preventing IL-6/IL-6Rcomplex formationon the cell membrane. All of the expressed the purified antibodies were tested for their abilities to block the binding between IL-6 and IL-6R by ELISA. The procedures was descripted as follows:
The plates were coated with100 μl of 2 ng/μl IL-6.Fc at 4° C. overnight, and blocked with 2% skim milk at 37° C. for 1 hour. The plates were then washed, incubated with 100 μl of serial diluted testing samples with and 1 ng/μl IL-6R.BP15. After 1 hourincubation at 37° C,. the plates were washed andHRP-streptavidin (Jackson, 016-030-084) diluted at 1:4000 was added to the plate followed by incubation. After wash and 100 μl TMB develoment at room temperature for 5 min. 100 μl of 1M H₂SO₄ was added to terminate the reaction. The OD₄₅₀ values were read.

Experiment [3] has as its target T2, membrane-type IL-6R on cells (U266B1, TF-1, Hep3B) (UniProt P08887 20-468, limits assumed).
T2 sequence (looked up): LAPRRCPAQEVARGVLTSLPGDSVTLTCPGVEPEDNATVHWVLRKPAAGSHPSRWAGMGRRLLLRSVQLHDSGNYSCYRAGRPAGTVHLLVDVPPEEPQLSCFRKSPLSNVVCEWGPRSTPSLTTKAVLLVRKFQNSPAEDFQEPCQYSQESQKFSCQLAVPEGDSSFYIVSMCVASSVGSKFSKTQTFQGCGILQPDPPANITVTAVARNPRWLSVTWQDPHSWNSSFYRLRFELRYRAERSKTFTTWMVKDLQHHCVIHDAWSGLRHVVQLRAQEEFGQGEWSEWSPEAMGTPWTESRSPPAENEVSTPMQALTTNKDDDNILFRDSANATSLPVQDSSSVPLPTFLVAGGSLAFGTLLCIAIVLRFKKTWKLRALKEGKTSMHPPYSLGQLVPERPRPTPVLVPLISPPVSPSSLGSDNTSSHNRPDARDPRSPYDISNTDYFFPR
As to the kind of experiment: cell-based or functional assay.

B1: Sari (antibody, human IgG1, kappa, V domains shown)
VH: EVQLVESGGGLVQPGRSLRLSCAASRFTFDDYAMHWVRQAPGKGLEWVSGISWNSGRIGYADSVKGRFTISRDNAENSLFLQMNGLRAEDTALYYCAKGRDSFDIWGQGTMVTVSS
VL: DIQMTQSPSSVSASVGDRVTITCRASQGISSWLAWYQQKPGKAPKLLIYGASSLESGVPSRFSGSGSGTDFTLTISSLQPEDFASYYCQQANSFPYTFGQGTKLEIKR
notes: Positive control antibody; also called Sarilumab; anti-IL-6R antibody sarilumab (Regeneron)
B1: the IC50 (in general, the concentration needed to halve the response being measured) was 0.0474 µg/mL in experiment [1] and 0.5 µg/mL in experiment [2].

B2: Tocilizumab (antibody, human IgG1, kappa, V domains shown)
VH: EVQLQESGPGLVRPSQTLSLTCTVSGYSITSDHAWSWVRQPPGRGLEWIGYISYSGITTYNPSLKSRVTMLRDTSKNQFSLRLSSVTAADTAVYYCARSLARTTAMDYWGQGSLVTVSS
VL: DIQMTQSPSSLSASVGDRVTITCRASQDISSYLNWYQQKPGKAPKLLIYYTSRLHSGVPSRFSGSGSGTDFTFTISSLQPEDIATYYCQQGNTLPYTFGQGTKVEIKR
notes: Positive control; also called anti-IL-6R humanized mAb tocilizumab
Turning to B2, the half-maximal inhibitory concentration (IC50) in experiment [1] is 0.49 µg/mL; in experiment [2], 0.466 µg/mL. In addition, the “Relative expression level of hepcidin mRNA (fold) in Hep3B cells with 5 nM antibody and 10 ng/ml IL-6 (blank 1; IL-6 only 2.783)” value in experiment [3] was determined as 1.87 fold.
